Test results published in doi:10.1101/2021.07.14.452405.

Assays:
[1] = biological target: Melbournevirus major capsid protein (Melbournevirus); assay: cryo-EM structure
[2] = biological target: Melbournevirus penton base protein (Melbournevirus); assay: cryo-EM structure

Substance | stoichiometry N [1] | stoichiometry N [2]
Melbournevirus major capsid protein (natural protein) | 3 | –
Melbournevirus penton base protein (natural protein) | – | 5
